The experiment has as its system Caspase-8. The experiment is described as follows: Caspase-8 biosensors transfected into HeLa cells, induction with TRAIL. It is filed as cell-based. The following applies: 1 μg/mL TRAIL, 37° C. The text has this: To evaluate whether the mutant thermostable luciferase biosensors of the present invention can be used to detect Caspase-8 activity in cells, biosensors were generated that contained the Caspase-8 cleavage site, LETDG (SEQ ID NO:15). Two different biosensors, TL-CP358-Caspase-8 and TL-CP233-Caspase-8 were used. As controls, the firefly (Photinus pyralis; Ppy) luciferase biosensors FF-CP234-Caspase-8 (M/Ppy residues 234-544/LETDG/Ppy residues 4-230/V), FF-CP359-Caspase-8 (M/Ppy residues 359-544/LETDG/Ppy residues 4-355/V), and TL-CP358-DEVD.
All biosensors were transfected into HeLa cells. Cells were plated at a (10,000/well) into a 96-well tissue culture plate. […]
After overnight incubation, the media was removed from the cells and replaced with CO2 Independent Media (Invitrogen Cat. No. 18045088) with 2 mM Luciferin EF (Promega Cat. No. E6551). Cells were pre-equilibrated with Luciferin EF for 2 hrs in a Varioskan luminometer with bioluminescence readings taken every 20 min. […] The cells were again incubated at 37° C. in a Varioskan luminometer for 500+ min with bioluminescence measured every 20 min.
FIGS. 5 and 7 identify the kinetic profiles of Caspase 8 activation by TRAIL over time at 37° C. […] Fold induction of activation was calculated by dividing the signal of samples with TRAIL over the signals without trail at a given time point. […]

B1: TL-CP233-Caspase 8: TL Ppe fragments 233-543 and 4-232 with caspase-8 site linker … (SEQ ID NOs:57 and 58) (protein)
chain: MTSAILTVIPFHHGFGMMTTLGYFTCGFRVVLMHTFEEKLFLQSLQDYKVESTLLVPTLMAFLAKSALVEKYDLSHLKEIASGGAPLSKEIGEMVKKRFKLNFVRQGYGLTETTSAVLITPKGDAKPGSTGKIVPLHAVKVVDPTTGKILGPNEPGELYFKGPMIMKGYYNNEEATKAIIDNDGWLRSGDIAYYDNDGHFYIVDRLKSLIKYKGYQVAPAEIEGILLQHPYIVDAGVTGIPDEAAGELPAAGVVVQTGKYLNEQIVQDYVASQVSTAKWLRGGVKFLDEIPKGSTGKIDRKVLRQMLEKHTNGSSLETDGSSGDKNILYGPEPFYPLEDGTAGEQMFDALSRYAAIPGCIALTNAHTKENVLYEEFLKLSCRLAESFKKYGLKQNDTIAVCSENSLQFFLPVIASLYLGIIVAPVNDKYIERELIHSLGIVKPRIVFCSKNTFQKVLNVKSKLKSIETIIILDLNEDLGGYQCLNNFISQNSDSNLDVKKFKPYSFNRDDQVASIMFSSGTTGLPKGVMLTHKNIVARFSIAKDPTFGNAINPV
On to B1, for which the “detection of Caspase 8 activation by TRAIL” value is given as “can detect Caspase 8 activation by TRAIL”.

B2: TL-CP358-Caspase 8: TL Ppe fragments 358-543 and 4-354 with caspase-8 site linker … (SEQ ID NOs:59 and 60) (protein)
chain: MPGSTGKIVPLHAVKVVDPTTGKILGPNEPGELYFKGPMIMKGYYNNEEATKAIIDNDGWLRSGDIAYYDNDGHFYIVDRLKSLIKYKGYQVAPAEIEGILLQHPYIVDAGVTGIPDEAAGELPAAGVVVQTGKYLNEQIVQDYVASQVSTAKWLRGGVKFLDEIPKGSTGKIDRKVLRQMLEKHTNGSSLETDGSSGKNILYGPEPFYPLEDGTAGEQMFDALSRYAAIPGCIALTNAHTKENVLYEEFLKLSCRLAESFKKYGLKQNDTIAVCSENSLQFFLPVIASLYLGIIVAPVNDKYIERELIHSLGIVKPRIVFCSKNTFQKVLNVKSKLKSIETIIILDLNEDLGGYQCLNNFISQNSDSNLDVKKFKPYSFNRDDQVASIMFSSGTTGLPKGVMLTHKNIVARFSIAKDPTFGNAINPTSAILTVIPFHHGFGMMTTLGYFTCGFRVVLMHTFEEKLFLQSLQDYKVESTLLVPTLMAFLAKSALVEKYDLSHLKEIASGGAPLSKEIGEMVKKRFKLNFVRQGYGLTETTSAVLITPKGV
As to B2, the “detection of Caspase 8 activation by TRAIL” value is “can detect Caspase 8 activation by TRAIL”.
